Test results reported in patent US20130129701, “Methods and Compositions for Sequence Specific RNA Endonucleases” (published 2013).

T1: PUF-R6(SYxxR) purified (Homo sapiens, UniProt Q14671 Q14671:828-1176, N1043S/Q1047R)
T1 sequence: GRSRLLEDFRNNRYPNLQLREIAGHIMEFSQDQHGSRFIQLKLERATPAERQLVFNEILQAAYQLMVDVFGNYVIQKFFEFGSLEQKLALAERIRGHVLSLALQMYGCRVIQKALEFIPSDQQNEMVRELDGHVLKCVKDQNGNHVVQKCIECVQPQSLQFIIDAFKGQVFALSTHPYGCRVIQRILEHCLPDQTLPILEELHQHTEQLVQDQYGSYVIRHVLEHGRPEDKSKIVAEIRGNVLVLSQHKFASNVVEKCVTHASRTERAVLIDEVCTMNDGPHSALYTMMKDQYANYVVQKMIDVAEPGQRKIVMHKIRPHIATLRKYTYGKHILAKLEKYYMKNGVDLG


Columns and labels:
PUF-R6(SYxxR) purified [1] = target: T1, PUF-R6(SYxxR) purified; assay: EMSA; 0.2 uM protein, 1 nM biotinylated RNA, 1 mM MgCl2, room temperature
Description: Protein concentration was determined by Bradford assay. RNAs were generated by in vitro transcription and purified on denaturing gels. 50 pmol of RNAs were labeled at the 3′ end with biotinylated cytidine bisphosphate using T4 RNA ligase following manufacturer's directions (Thermo Scientific Pierce RNA 3′ End Biotinylation Kit). In each sample, 20 fmol of labeled RNA (1 nM) and 4 pmol of proteins (0.2 μM) were incubated in binding buffer (10 mM HEPES, pH 7.3, 20 mM KCl, 1 mM MgCl₂, 1 mM DTT, and 0.1 g/L tRNA) for 1 hour at room temperature. The binding reactions were separated by electrophoresis on 6% nondenaturing PAGE run with 1×TBE at 4° C., transferred to nylon membranes, and crosslinked to the membrane by UV. Biotin-labeled RNA was detected by chemiluminescence using the Thermo Scientific LightShift Chemiluminescent RNA EMSA Kit following manufacturer's directions.

PUF-R6(SYxxR) purified [2] = target: T1, PUF-R6(SYxxR) purified; assay: structure; PDB 2yjy
Description: Crystals of PUF-R6(SYxxR) mutant and C3 RNA (5′-[…]) were grown by sitting drop vapor diffusion. RNA oligonucleotide was obtained from Dharmacon (Lafayette, Colo.). The protein-RNA complex was prepared by mixing a 1:1.1 molar ratio of purified protein (3.5 mg/ml) and RNA in a buffer containing 20 mM Tris-HCl, pH 7.5; 100 mM NaCl; and 1 mM DTT. One μl of complex solution was added to 1 μl of a well solution containing 30% PEG 3350, 0.2M ammonium tartrate dibasic, and 0.1M bis-Tris, pH 5.5. Crystals were flash frozen after adding an equal volume of cryoprotectant solution (32% PEG 3350, 20% ethylene glycol) to the drop. Diffraction data were collected at the SER-CAT beamline ID-22, Advanced Photon Source at wavelength 1.0 Å and −180° C. All data sets were indexed, integrated, and scaled with the HKL2000 suite (21). The structure was determined by molecular replacement using the structure of human Pumilio1 (PDB ID: 1M8Y) as a search model with PHASER (22). Two complexes are present in the asymmetric unit. Iterative model building was performed with COOT (23), and the resulting models were refined with PHENIX (24). All Phi-Psi angles are within allowable regions of the Ramachandran plot. The atomic coordinates and structure factors have been deposited in the Protein Data Bank (PDB ID: 2yjy).

Binder | binding result (PUF-R6(SYxxR) purified [1]) | binding result (PUF-R6(SYxxR) purified [2])
UGCAUAUA (ssRNA) [C3 RNA] | binds | –
AUUGCAUAUA (ssRNA) [C3 RNA crystallization 10-mer] | – | binds
